Columns and labels:
[1] = system: SCID mice grafted with human skin infected with Nm 2C4.3; assay: Vascular lesions in SCID mice grafted with human skin infected with N. meningitidis (4 h); type: in vivo; details: for vascular colonization of human dermal vessels at 4 hours post-infection / vessel thrombosis in skin grafts / integrity of the endothelial cell junctions (VE-cadherin staining): 1 μg/mouse i.v.; for vessel thrombosis in skin grafts: 4 h post-infection
Procedure: FIG. 7: ANGPTL4 reduces signs of thrombosis, vascular injury and inflammation. A-D, SCID mice grafted with human skins were infected intravenously with Nm 2C4.3 wild-type strain (5×10^6 bacteria) or left uninfected. A period of 30 min or 2 h after bacterial challenge, mice received 1 μg of recombinant human ANGPTL4, nANGPTL4 or cANGPTL4 intravenously or the vehicle as a control. Mice were killed at 4 h post-challenge. This experiment was performed twice with n=3 or 4 mice per group, using skin from two different donors. A, A schematic representation of the protocols used in vivo. B, Control bacteraemia 4 h post-infection (mean±s.e.m.). C, Bacterial colonization within the skin grafts as assessed by immunofluorescence analysis was quantified using ImageJ software as the ratio between bacterial surface colonization and the lumen surface of the vessels. A total of 30-50 vessels per mouse were analysed. Error bars show mean±s.e.m. D, Thrombus formation within the skin grafts was assessed by immunofluorescence analysis and quantified using ImageJ as the ratio between thrombus surfaces and the lumen surface of the vessels. A total of 30-50 vessels per mouse were analysed. Error bars show mean±s.e.m.; *** P<0.0001; ns P=0.0541 two-tailed Student's t-test.
Six-week-old CB17/Icr-Prkdcscid female mice were obtained from Janvier Labs. Human skin tissues were obtained from adult patients undergoing plastic surgery in the Service de Chirurgie Plastique et Reconstructive of the Groupe Hospitalier Saint-Joseph. […] Experimental procedures were performed as previously described in accordance with the guidelines of the Institut National de la Santé et de la Recherche Médicale and conformed to the European ethical legislation (Directive 2010/63/EU). The experimental protocol was approved by the Animal Experimentation Ethics Committee of the Université Paris Descartes (consent forms CEEA34.O.J.L.039.12 and 2018012515596498). […]. A skin flap was created and a full thickness human skin graft was placed onto the wound bed. The transplants were held in place with 6-0 non-absorbable monofilament suture materials, and the flap was then sutured above the transplant. Grafted mice were infected 4-6 weeks after human skin transplantation. N. meningitidis was grown overnight at 37° C. on GCB agar plates prepared without iron and supplemented with 15 μM deferoxamine (Desferal, Novartis). Bacterial colonies were harvested and cultured in RPMI media with 1% BSA medium and 0.06 μM deferoxamine with gentle agitation to reach the exponential phase of growth. Bacteria were then resuspended in physiological saline solution. Mice were infected intravenously with 200 μl (5×10^6 bacteria) of this bacterial suspension. A 10 mg dose of human holotransferrin (R&D Systems) was administered intraperitoneally just before infection. Mice were killed at 4 h after infection. Human skin grafts were carefully collected using a sterile cutter. The tissue was washed in PBS and fixed overnight at 4° C. in 4% paraformaldehyde in phosphate buffer. After washing in phosphate buffer, the specimens were embedded in OCT medium and then frozen at −80° C. Sections of the dermis (7 μm thick) were immobilized on Superfrost Plus microscope slides and subjected to immunofluorescence analysis. Sections were incubated with the primary antibodies for 1 h in PBS/3% BSA then DAPI was added to Alexa-conjugated secondary antibodies for 1 h. After additional washing, coverslips were mounted in glycergel (Dako) and were further analysed using a slide scanner (Lamina, Perkin Elmer). Analysis of the images was performed using ImageJ software (NIH). […]

[2] = system: Balb/c mice challenged with LPS; assay: LPS-induced endotoxemia (sepsis) in mice; type: in vivo; details: for sepsis-associated mortality / survival rate: 2 μg/mouse i.v.
Procedure: FIG. 9: ANGPTL4 protects against LPS-induced endotoxemia by preventing vascular dysfunction and organ failure. A-B, Balb/c mice received LPS (5 mg kg-1, i.p.); 30 min after LPS challenge, mice received recombinant human ANGPTL4 (2 μg, intravenously), or vehicle as a control. A, A schematic representation of the protocol used. B, Survival curve (n=16 mice per group): **** P<0.0001; two-sided log-rank Mantel-Cox survival analysis. C,D, Balb/c mice received LPS (5 mg kg-1, i.p.); 30 min after LPS challenge, mice received nANGPTL4 (2 μg, intravenously), or vehicle as a control. C, A schematic representation of the protocol used. D, Survival curve (n=6 mice per group): ** P=0.0033; two-sided log-rank Mantel-Cox survival analysis. E, F, Balb/c mice received LPS (5 mg kg-1, i.p.); 30 min after LPS challenge, mice received Peptide 1 (2 μg, intravenously), or vehicle as a control. E, A schematic representation of the protocol used. F, Survival curve (n=6 mice per group): * P=0.0163; two-sided log-rank Mantel-Cox survival analysis. G, Balb/c mice received LPS (5 mg kg-1. i.p.): 30 min after LPS challenge, mice received recombinant human peptide P9 (2 μg. intravenously). or vehicle as a control. Survival curves (n=6 mice per group). *** P<0.001: two-sided log-rank Mantel-Cox survival analysis. H. Balb/c mice received LPS (4 mg kg-1. i.p.) together with anti-ANGPTL4 blocking antibody (10 μg kg-1. i.v) or vehicle as a control. 18 h after LPS challenge. mice were perfused with Evans blue for 1 h. were killed and brain were extracted. Quantification analysis of Evans blue extravasation (n=4 mice per group). Bars and error bars show the mean±s.e.m., respectively, from two independent experiments: *** P<0.001: NS, not significant (P>0.05) one-way ANOVA Tukey's multiple comparison test.
Female BALB/c mice, obtained from Janvier Labs, 9-10 weeks of age, were administered LPS at 5 mg/kg intraperitoneally and survival was monitored for 72 h (n=12 per group). BALB/c mice were randomly divided into 2 groups: LPS and LPS+Angptl4. Angptl4 (2 μg/mice) or vehicle (physiological saline solution) was administered intravenously 30 min after LPS challenge. In some experiments, blood serum, kidney and lung were collected at 18 h post-LPS challenge. Kidney and lungs were fixed in 4% PFA, embedded in paraffin, and 5-μm sections were cut from each block and stained with H&E. The stained sections were observed and acquired using a slide scanner (Lamina, Perkin Elmer). Analysis of the images was performed using ImageJ software (NIH).
Since severe endothelial dysfunction, leading to dysregulation of hemostasis and vascular dysfunction, is central to the progression to organ failure during sepsis, we analysed whether ANGPTL4 could play a protective role in sepsis, using a lipopolysaccharide (LPS)-induced endotoxemia (FIG. 9A). After LPS-challenge (5 mg kg-1, i.p.), all mice died within two days (FIG. 9B).

[3] = 18 h post-LPS challenge, data not shown

B1: cANGPTL4: C-terminal fragment of ANGPTL4, aa 164-406, fibrinogen-like domain, purchased from R&D Systems (protein, listed as Homo sapiens)
chain: RLPEMAQPVDPAHNVSRLHRLPRDCQELFQVGERQSGLFEIQPQGSPPFLVNCKMTSDGGWTVIQRRHDGSVDFNRPWEAYKAGFGDPHGEFWLGLEKVHSITGDRNSRLAVQLRDWDGNAELLQFSVHLGGEDTAYSLQLTAPVAGQLGATTVPPSGLSVPFSTWDQDHDLRRDKNCAKSLSGGWWFGTCSHSNLNGQYFRSIPQQRQKLKKGIFWKTWRGRYYPLQATTMLIQPMAAEAAS
Which results are given for B1?
vascular colonization of human dermal vessels at 4 hours post-infection [1]: no effect on vascular colonization; vessel thrombosis in skin grafts [1]: reduced vessel thrombosis; production of proinflammatory factors and biomarkers of vascular inflammation ([1]; 1 μg/mouse, data not shown): most efficient at preventing the production of proinflammatory factors and biomarkers of vascular inflammation; sepsis-associated mortality / survival rate ([2]; LPS 5 mg kg-1 i.p.): did not significantly increased the survival rate

B2: nANGPTL4: N-terminal fragment of ANGPTL4, aa 26-164, SEQ ID NO: 24, purchased from R&D Systems (protein)
chain: GPVQSKSPRFASWDEMNVLAHGLLQLGQGLREHAERTRSQLSALERRLSACGSACQGTEGSTDLPLAPESRVDPEVLHSLQTQLKAQNSRIQQLFHKVAQQQRHLEKQHLRIQHLQSQFGLLDHKHLDHEVAKPARRK
modifications: nANGPTL4
For B2, which “vascular colonization of human dermal vessels at 4 hours post-infection” value [1] is on record?
The value was “no effect on vascular colonization”.

And the “vessel thrombosis in skin grafts” value [1]?
The value was “reduced vessel thrombosis”.

And the “integrity of the endothelial cell junctions (VE-cadherin staining)” value ([1]; data not shown)?
Its value is “preserved the integrity of the endothelial cell junctions”.

What about the “sepsis-associated mortality / survival rate” value ([2]; LPS 5 mg kg-1 i.p.) of the same molecule?
Its value is “reduced sepsis-associated mortality rate as efficiently as the full-length protein”.

B3: ANGPTL4: Recombinant human ANGPTL4 (Angiopoietin-like 4), full length, SEQ ID NO: 1, purchased from R&D Systems (protein, listed as Homo sapiens)
chain: MSGAPTAGAALMLCAATAVLLSAQGGPVQSKSPRFASWDEMNVLAHGLLQLGQGLREHAERTRSQLSALERRLSACGSACQGTEGSTDLPLAPESRVDPEVLHSLQTQLKAQNSRIQQLFHKVAQQQRHLEKQHLRIQHLQSQFGLLDHKHLDHEVAKPARRKRLPEMAQPVDPAHNVSRLHRLPRDCQELFQVGERQSGLFEIQPQGSPPFLVNCKMTSDGGWTVIQRRHDGSVDFNRPWEAYKAGFGDPHGEFWLGLEKVHSITGDRNSRLAVQLRDWDGNAELLQFSVHLGGEDTAYSLQLTAPVAGQLGATTVPPSGLSVPFSTWDQDHDLRRDKNCAKSLSGGWWFGTCSHSNLNGQYFRSIPQQRQKLKKGIFWKTWRGRYYPLQATTMLIQPMAAEAAS
With B3 as the molecule, how does the “vessel thrombosis in skin grafts” value [1] read?
Its value is “largely reduced vessel thrombosis”.

What about the “integrity of the endothelial cell junctions (VE-cadherin staining)” value ([1]; data not shown) of the same molecule?
The value was “preserved the integrity of the endothelial cell junctions”.

And the “effect on inflammatory markers upon administration at 2 h” value ([1]; administration 2 h post-infection, data not shown)?
Its value is “no effect”.

And the “reduction of serum levels of TNF-α, IL-6, IL-8, soluble E-selectin, ICAM-1, VCAM-1, Angiopoetin-2, Thrombomodulin” value ([1]; mice sera, early administration (30 min), data not shown)?
The value was 60-80%.

What about the “LPS-induced acute lung injury (histopathology)” value [2, 3] of the same molecule?
The value was “no pathological signs”.

What about the LPS-induced renal haemorrhage [2, 3] of the same molecule?
Its LPS-induced renal haemorrhage is “no sign of haemorrhage”.

And the “sepsis-associated mortality / survival rate” value ([2]; LPS 5 mg kg-1 i.p.)?
Its value is “markedly reduced sepsis-associated mortality rate”.

What about the “mice surviving LPS challenge” value ([2]; LPS 5 mg kg-1 i.p., 2 μg/mouse i.v. 30 min after LPS, all control mice died within two days) of the same molecule?
Its value is 80%.

What about the overall weight loss ([2]; compared to vehicle-treated control groups) of the same molecule?
The overall weight loss was “not significantly reduced”.

And the body temperature ([2]; data not shown)?
The body temperature was “rapidly stabilized”.

Reference: patent US20250163116A1, “NEW METHOD TO TREAT INFECTIOUS DISEASES” (INSERM (INSTITUT NATIONAL DE LA SANTÉ ET DE LA RECHERCHE …, priority 2022, published 2025)
